Patent US20240174741A1 (IMMUNOME, published 2024)

How the values were obtained:
Hnrnph1 = biological target: T1, Hnrnph1; assay: CDI HuProt native protein microarray (High-Spec cross-reactivity assay)
T1 construct: The lower-case gene symbol may mean a mouse clone
T1 sequence (P31943 1-449, species assumed, looked up): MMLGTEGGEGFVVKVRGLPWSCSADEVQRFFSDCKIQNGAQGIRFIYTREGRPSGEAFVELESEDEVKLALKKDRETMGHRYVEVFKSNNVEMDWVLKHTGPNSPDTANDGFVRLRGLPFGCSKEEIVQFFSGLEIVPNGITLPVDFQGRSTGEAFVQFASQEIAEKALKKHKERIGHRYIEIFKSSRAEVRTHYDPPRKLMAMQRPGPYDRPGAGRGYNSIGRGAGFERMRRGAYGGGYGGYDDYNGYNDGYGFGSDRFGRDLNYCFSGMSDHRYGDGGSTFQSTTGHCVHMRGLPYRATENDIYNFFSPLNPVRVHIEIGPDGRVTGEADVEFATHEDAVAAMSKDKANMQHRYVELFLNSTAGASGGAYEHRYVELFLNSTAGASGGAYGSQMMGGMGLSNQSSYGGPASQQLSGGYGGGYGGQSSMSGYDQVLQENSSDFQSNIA
Experimental: (§1) To confirm specificity to IL-38, several lead candidate antibodies (CD1-M3, CD1-M8, NZB-M8) were analyzed in a High-Spec Cross-reactivity Assay using native HuProt arrays (CDI Laboratories). […] of antibody was incubated overnight in a cold room, washed, and probed with anti-human secondary antibodies. Fluorescence intensity (F635) as an indicator of binding was measured for each spot. CDI software quantified the specificity of the antibody to each spot based on a Z-score. Z-score is defined as [F635−(Average F635 on array)]/(Standard deviation of F635 on array). S-score is defined as the difference between the Z-score of a given protein and the Z-score of the next highest protein.

IL-33 = biological target: T2, IL-33 (human, UniProt O95760 1-270, limits assumed); assay: CDI HuProt native protein microarray, IL-1 family members
T2 sequence (looked up): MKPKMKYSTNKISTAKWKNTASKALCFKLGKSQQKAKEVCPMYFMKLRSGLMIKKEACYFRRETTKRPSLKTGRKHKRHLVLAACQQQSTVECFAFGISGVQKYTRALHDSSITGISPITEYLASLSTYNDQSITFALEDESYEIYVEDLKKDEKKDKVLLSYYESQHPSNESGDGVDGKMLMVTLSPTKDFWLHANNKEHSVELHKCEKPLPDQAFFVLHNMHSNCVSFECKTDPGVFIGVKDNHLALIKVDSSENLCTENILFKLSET
Experimental: as §1

IL-36a = biological target: T3, IL-36a (human, UniProt Q9UHA7 1-158, limits assumed); assay: as above
T3 sequence (looked up): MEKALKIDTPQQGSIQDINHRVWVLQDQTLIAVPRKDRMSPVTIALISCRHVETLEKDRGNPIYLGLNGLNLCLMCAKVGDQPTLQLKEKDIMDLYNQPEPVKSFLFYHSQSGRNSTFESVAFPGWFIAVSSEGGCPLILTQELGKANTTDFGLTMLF
Experimental: as §1

IL-1Ra = IL-1Ra (human, UniProt P18510 26-177, limits assumed); assay: as above
Experimental: as §1

IL-36b = biological target: T4, IL-36b (human, UniProt Q9NZH7 1-164, limits assumed); assay: as above
T4 sequence (looked up): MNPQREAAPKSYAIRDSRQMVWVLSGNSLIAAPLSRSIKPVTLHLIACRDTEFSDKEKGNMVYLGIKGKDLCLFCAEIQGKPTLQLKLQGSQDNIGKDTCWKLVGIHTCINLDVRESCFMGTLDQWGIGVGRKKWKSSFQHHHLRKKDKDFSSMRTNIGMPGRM
Experimental: as §1

[1] = biological target: T5, human interleukin-38 (IL-38) (human, UniProt Q8WWZ1 1-152); assay: as above
T5 construct: The Adipogen protein is called full length; also called IL1F10/IL38; IL1F10
T5 sequence (looked up): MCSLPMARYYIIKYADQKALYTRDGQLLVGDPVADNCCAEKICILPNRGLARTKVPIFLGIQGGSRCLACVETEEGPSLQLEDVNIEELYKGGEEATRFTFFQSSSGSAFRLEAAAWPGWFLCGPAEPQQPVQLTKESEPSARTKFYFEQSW
Experimental: as §1

IL-36g = biological target: T6, IL-36g (human, UniProt Q9NZH8 1-169, limits assumed); assay: as above
T6 sequence (looked up): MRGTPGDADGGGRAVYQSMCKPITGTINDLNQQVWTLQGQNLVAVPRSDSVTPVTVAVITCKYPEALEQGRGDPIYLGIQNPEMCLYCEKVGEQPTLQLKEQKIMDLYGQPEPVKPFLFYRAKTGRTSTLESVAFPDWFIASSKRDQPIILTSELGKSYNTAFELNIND
Experimental: as §1

IL-1β = IL-1β (human, UniProt P01584 1-269, limits assumed); assay: as above
Experimental: as §1

IL-37 = biological target: T7, IL-37 (human, UniProt Q9NZH6 1-218, limits assumed); assay: as above
T7 sequence (looked up): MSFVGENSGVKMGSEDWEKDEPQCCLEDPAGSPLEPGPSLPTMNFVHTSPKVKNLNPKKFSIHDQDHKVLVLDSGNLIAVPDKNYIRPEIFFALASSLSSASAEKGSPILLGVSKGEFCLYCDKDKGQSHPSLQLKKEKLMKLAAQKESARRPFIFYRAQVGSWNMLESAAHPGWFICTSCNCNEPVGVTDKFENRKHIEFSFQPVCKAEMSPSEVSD
Experimental: as §1

IL-1α = biological target: T8, IL-1α (human, UniProt P01583 1-271, limits assumed); assay: as above
T8 sequence (looked up): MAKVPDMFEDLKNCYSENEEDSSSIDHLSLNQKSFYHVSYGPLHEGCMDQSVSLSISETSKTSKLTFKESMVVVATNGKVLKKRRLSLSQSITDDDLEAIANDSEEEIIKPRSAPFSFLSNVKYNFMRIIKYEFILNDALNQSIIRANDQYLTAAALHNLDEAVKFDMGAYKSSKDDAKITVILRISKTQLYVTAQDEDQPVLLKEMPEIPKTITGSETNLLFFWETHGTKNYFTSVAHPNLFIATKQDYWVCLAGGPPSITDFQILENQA
Experimental: as §1

Sequence of IL-1Ra (P18510 26-177 limits assumed): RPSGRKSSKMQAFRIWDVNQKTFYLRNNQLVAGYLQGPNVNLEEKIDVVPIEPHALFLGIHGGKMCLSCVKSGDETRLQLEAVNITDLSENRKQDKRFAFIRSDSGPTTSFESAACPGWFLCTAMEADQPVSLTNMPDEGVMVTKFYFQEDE

F635 (Hnrnph1): 4130
S-Score (Hnrnph1): 5
Z-score (Hnrnph1): 10.6
Z-score (IL-33): -0.02
Z-score (IL-36a): -0.008
Z-score (IL-1Ra): -0.013
Z-score (IL-36b): -0.016
Z-score [1]: 140
Z-score (IL-36g): -0.017
Z-score (IL-1β): -0.016
Z-score (IL-37): -0.013
Z-score (IL-1α): -0.013
B1: CD1-M3 (antibody, V domains shown)
VH: EVQLQQSGPELVKPGASVKIPCKASGYTFTDYNMDWVKQSHGKSLEWIGDINPNNGGTIYNQKFKGKATLTVDKSSSTAYMELRSLTSEDTAVYYCSRPYYGYFAYWGQGTLVTVSA
VL: DVVMTQSPLSLPVSLGDQASISCRSSQSLVHSHENTFLHWYLQKPGQSPKLLIYRVSNRFSGVPDRFSGSGSGTDFTLKISRVEAEDLGVYFCSQSTHVPLTFGAGTKLELK
notes: Mouse monoclonal from a hybridoma of a CD-1 mouse immunized with full length recombinant IL-38
